Laboratory results taken from patent US20190345535.
“And” between values parts separate entries of the source, which are not always exact repeats. Equal values may be shown once.

Legend:
[1] = target: GFP^2-Pflu3-RLuc2 fusion protein (Pflu sensor 3)
[2] = target: GFP^2-plas1-RLuc2 fusion protein (BRET^2 plasmin sensor)
[3] = target: GFP^2-Pflu-H1-RLuc2 fusion protein
[4] = target: GFP^2-Pflu-H2-RLuc2 fusion protein
[5] = target: GFP^2-Pflu-H3-RLuc2 fusion protein
[6] = target: GFP^2-Pflu-H4-RLuc2 fusion protein

Protein	Linear range (10%-90% BRET^2 response), 50% full fat UHT milk [1]	Linear response, BRET^2, raw milk, one-step pre-treatment protocol [2]	Linear response, BRET^2, raw milk, one-step pre-treatment with low power sonication [2]	Plasmin response (%), BRET^2, 1 nM Bovine plasmin in UHT milk [3]	Plasmin response (%), BRET^2, 1 nM Bovine plasmin in UHT milk [4]	Plasmin response (%), BRET^2, 1 nM Bovine plasmin in UHT milk [5]	Plasmin response (%), BRET^2, 1 nM Bovine plasmin in UHT milk [6]
human plasmin (Sigma) (protein) KVYLSECKTGNGKNYRGTMSKTKNGITCQKWSSTSPHRPRFSPATHPSEGLEENYCRNPDNDPQGPWCYTTDPEKRYDYCDILECEEECMHCSGENYDGKISKTMSGLECQAWDSQSPHAHGYIPSKFPNKNLKKNYCRNPDRELRPWCFTTDPNKRWELCDIPRCTTPPPSSGPTYQCLKGTGENYRGNVAVTVSGHTCQHWSAQTPHTHNRTPENFPCKNLDENYCRNPDGKRAPWCHTTNSQVRWEYCKIPSCDSSPVSTEQLAPTAPPELTPVVQDCYHGDGQSYRGTSSTTTTGKKCQSWSSMTPHRHQKTPENYPNAGLTMNYCRNPDADKGPWCFTTDPSVRWEYCNLKKCSGTEASVVAPPPVVLLPDVETPSEEDCMFGNGKGYRGKRATTVTGTPCQDWAAQEPHRHSIFTPETNPRAGLEKNYCRNPDGDVGGPWCYTTNPRKLYDYCDVPQCAAPSFDCGKPQVEPKKCPGRVVGGCVAHPHSWPWQVSLRTRFGMHFCGGTLISPEWVLTAAHCLEKSPRPSSYKVILGAHQEVNLEPHVQEIEVSRLFLEPTRKDIALLKLSSPAVITDKVIPACLPSPNYVVADRTECFITGWGETQGTFGAGLLKEAQLPVIENKVCNRYEFLNGRVQSTELCAGHLAGGTDSCQGDSGGPLVCFEKDKYILQGVTSWGLGCARPNKPGVYVRVSRFVTWIEGVMRNN	452 nM and 3620 nM	between 1.6 nM (90%) and 128 nM (10%) plasmin	linear between 5.5 nM (90%) and 107 nM (10%)				
bovine plasmin (Sigma) (protein) RIYLLECKTGNGQTYRGTTAETKSGVTCQKWSATSPHVPKFSPEKFPLAGLEENYCRNPDNDENGPWCYTTDPDKRYDYCDIPECEDKCMHCSGENYEGKIAKTMSGRDCQAWDSQSPHAHGYIPSKFPNKNLKMNYCRNPDGEPRPWCFTTDPQKRWEFCDIPRCTTPPPSSGPKYQCLKGTGKNYGGTVAVTESGHTCQRWSEQTPHKHNRTPENFPCKNLEENYCRNPNGEKAPWCYTTNSEVRWEYCTIPSCESSPLSTERMDVPVPPEQTPVPQDCYHGNGQSYRGTSSTTITGRKCQSWSSMTPHRHLKTPENYPNAGLTMNYCRNPDADKSPWCYTTDPRVRWEFCNLKKCSETPEQVPAAPQAPGVENPPEADCMIGTGKSYRGKKATTVAGVPCQEWAAQEPHQHSIFTPETNPQSGLERNYCRNPDGDVNGPWCYTMNPRKPFDYCDVPQCESSFDCGKPKVEPKKCSGRIVGGCVSKPHSWPWQVSLRRSSRHFCGGTLISPKWVLTAAHCLDNILALSFYKVILGAHNEKVREQSVQEIPVSRLFREPSQADIALLKLSRPAIITKEVIPACLPPPNYMVAARTECYITGWGETQGTFGEGLLKEAHLPVIENKVCNRNEYLDGRVKPTELCAGHLIGGTDSCQGDSGGPLVCFEKDKYILQGVTSWGLGCARPNKPGVYVRVSPYVPWIEETMRRN				4.9%	7.9%	0.9%	6.3%
